Reference: patent US20140147444A1 (published 2014)
Where two headings read alike, the source gives them in different places.

T1: human OPGbp [143-317] (human, UniProt O14788 143-317)
T1 construct: also called OPGL
T1 sequence (looked up): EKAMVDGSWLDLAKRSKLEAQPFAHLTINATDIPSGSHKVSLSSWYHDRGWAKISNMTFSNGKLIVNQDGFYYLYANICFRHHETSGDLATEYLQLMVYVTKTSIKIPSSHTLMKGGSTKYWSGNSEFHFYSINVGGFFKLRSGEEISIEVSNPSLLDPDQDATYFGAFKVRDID


Assays:
human OPGbp [143-317] [1] = biological target: T1, human OPGbp [143-317]; assay: SPR (BIAcore), immobilized OPGbp [143-317]
human OPGbp [143-317] [2] = biological target: T1, human OPGbp [143-317]; assay: SPR (BIAcore), immobilized OPGbp [143-317]; remark: listed apart in the source

| Kd (human OPGbp [143-317] [1]) [nM] | koff (human OPGbp [143-317] [1]) [s⁻¹] | kon (human OPGbp [143-317] [1]) [M⁻¹ s⁻¹] | Kd (human OPGbp [143-317] [2]) [nM] | koff (human OPGbp [143-317] [2]) [s⁻¹] | kon (human OPGbp [143-317] [2]) [M⁻¹ s⁻¹] | Binder |
| --- | --- | --- | --- | --- | --- | --- |
| 0.46 | 0.00312 | 6.85e+06 | – | – | – | “AT” antibody variant N98D (heavy chain CDR3) (antibody, name in Kabat numbering, V domains shown, not shown: human IgG1 CH1, hinge, CH2 and CH3) VH: QVQLVQSGAEVRKPGASVKVSCKASGYDFSNYAIHWVRQAPGQRLEWMGWINAGNGNTKFSQKFQGRITVTRDTAASTAYMELRSLRSEDTAVYYCARDSSDMVRGIIIAYYFDYWGQGTLVTVSS VL: EIVMTQSPSSLSASVGDRVTITCRASQSISRYLNWYQLKPGKAPRLLIYGASSLQSGVPSRFSGSGSGAEFTLTISSLQPEDIATYYCQHTRAFGQGTKVEIKR |
| – | – | – | 0.67 | 0.00185 | 2.75e+06 | “AT” antibody variant S96Y (heavy chain CDR3) (antibody, name in Kabat numbering, V domains shown, not shown: human IgG1 CH1, hinge, CH2 and CH3) VH: QVQLVQSGAEVRKPGASVKVSCKASGYDFSNYAIHWVRQAPGQRLEWMGWINAGNGNTKFSQKFQGRITVTRDTAASTAYMELRSLRSEDTAVYYCARDYSNMVRGIIIAYYFDYWGQGTLVTVSS VL: EIVMTQSPSSLSASVGDRVTITCRASQSISRYLNWYQLKPGKAPRLLIYGASSLQSGVPSRFSGSGSGAEFTLTISSLQPEDIATYYCQHTRAFGQGTKVEIKR |
| – | – | – | 1.86 | 0.00764 | 4.12e+06 | “AT” antibody variant S96H (heavy chain CDR3) (antibody, name in Kabat numbering, V domains shown, not shown: human IgG1 CH1, hinge, CH2 and CH3) VH: QVQLVQSGAEVRKPGASVKVSCKASGYDFSNYAIHWVRQAPGQRLEWMGWINAGNGNTKFSQKFQGRITVTRDTAASTAYMELRSLRSEDTAVYYCARDHSNMVRGIIIAYYFDYWGQGTLVTVSS VL: EIVMTQSPSSLSASVGDRVTITCRASQSISRYLNWYQLKPGKAPRLLIYGASSLQSGVPSRFSGSGSGAEFTLTISSLQPEDIATYYCQHTRAFGQGTKVEIKR |
| – | – | – | 0.53 | 0.00167 | 3.14e+06 | “AT” antibody variant S96T (heavy chain CDR3) (antibody, name in Kabat numbering, V domains shown, not shown: human IgG1 CH1, hinge, CH2 and CH3) VH: QVQLVQSGAEVRKPGASVKVSCKASGYDFSNYAIHWVRQAPGQRLEWMGWINAGNGNTKFSQKFQGRITVTRDTAASTAYMELRSLRSEDTAVYYCARDTSNMVRGIIIAYYFDYWGQGTLVTVSS VL: EIVMTQSPSSLSASVGDRVTITCRASQSISRYLNWYQLKPGKAPRLLIYGASSLQSGVPSRFSGSGSGAEFTLTISSLQPEDIATYYCQHTRAFGQGTKVEIKR |
| – | – | – | 2.43 | 0.0087 | 3.57e+06 | “AT” antibody variant S96M (heavy chain CDR3) (antibody, name in Kabat numbering, V domains shown, not shown: human IgG1 CH1, hinge, CH2 and CH3) VH: QVQLVQSGAEVRKPGASVKVSCKASGYDFSNYAIHWVRQAPGQRLEWMGWINAGNGNTKFSQKFQGRITVTRDTAASTAYMELRSLRSEDTAVYYCARDMSNMVRGIIIAYYFDYWGQGTLVTVSS VL: EIVMTQSPSSLSASVGDRVTITCRASQSISRYLNWYQLKPGKAPRLLIYGASSLQSGVPSRFSGSGSGAEFTLTISSLQPEDIATYYCQHTRAFGQGTKVEIKR |
| 1.32 | 0.00359 | 2.72e+06 | – | – | – | “AT” antibody variant N98E (heavy chain CDR3) (antibody, name in Kabat numbering, V domains shown, not shown: human IgG1 CH1, hinge, CH2 and CH3) VH: QVQLVQSGAEVRKPGASVKVSCKASGYDFSNYAIHWVRQAPGQRLEWMGWINAGNGNTKFSQKFQGRITVTRDTAASTAYMELRSLRSEDTAVYYCARDSSEMVRGIIIAYYFDYWGQGTLVTVSS VL: EIVMTQSPSSLSASVGDRVTITCRASQSISRYLNWYQLKPGKAPRLLIYGASSLQSGVPSRFSGSGSGAEFTLTISSLQPEDIATYYCQHTRAFGQGTKVEIKR |
| – | – | – | 1.56 | 0.00466 | 2.99e+06 | “AT” antibody variant S96I (heavy chain CDR3) (antibody, name in Kabat numbering, V domains shown, not shown: human IgG1 CH1, hinge, CH2 and CH3) VH: QVQLVQSGAEVRKPGASVKVSCKASGYDFSNYAIHWVRQAPGQRLEWMGWINAGNGNTKFSQKFQGRITVTRDTAASTAYMELRSLRSEDTAVYYCARDISNMVRGIIIAYYFDYWGQGTLVTVSS VL: EIVMTQSPSSLSASVGDRVTITCRASQSISRYLNWYQLKPGKAPRLLIYGASSLQSGVPSRFSGSGSGAEFTLTISSLQPEDIATYYCQHTRAFGQGTKVEIKR |
| – | – | – | 0.35 | 0.000901 | 2.54e+06 | “AT” antibody variant S96E (heavy chain CDR3) (antibody, name in Kabat numbering, V domains shown, not shown: human IgG1 CH1, hinge, CH2 and CH3) VH: QVQLVQSGAEVRKPGASVKVSCKASGYDFSNYAIHWVRQAPGQRLEWMGWINAGNGNTKFSQKFQGRITVTRDTAASTAYMELRSLRSEDTAVYYCARDESNMVRGIIIAYYFDYWGQGTLVTVSS VL: EIVMTQSPSSLSASVGDRVTITCRASQSISRYLNWYQLKPGKAPRLLIYGASSLQSGVPSRFSGSGSGAEFTLTISSLQPEDIATYYCQHTRAFGQGTKVEIKR |
| – | – | – | 0.38 | 0.00262 | 6.97e+06 | “AT” antibody variant S96R (heavy chain CDR3) (antibody, name in Kabat numbering, V domains shown, not shown: human IgG1 CH1, hinge, CH2 and CH3) VH: QVQLVQSGAEVRKPGASVKVSCKASGYDFSNYAIHWVRQAPGQRLEWMGWINAGNGNTKFSQKFQGRITVTRDTAASTAYMELRSLRSEDTAVYYCARDRSNMVRGIIIAYYFDYWGQGTLVTVSS VL: EIVMTQSPSSLSASVGDRVTITCRASQSISRYLNWYQLKPGKAPRLLIYGASSLQSGVPSRFSGSGSGAEFTLTISSLQPEDIATYYCQHTRAFGQGTKVEIKR |
| – | – | – | 0.31 | 0.00141 | 4.55e+06 | “AT” antibody variant S96K (heavy chain CDR3) (antibody, name in Kabat numbering, V domains shown, not shown: human IgG1 CH1, hinge, CH2 and CH3) VH: QVQLVQSGAEVRKPGASVKVSCKASGYDFSNYAIHWVRQAPGQRLEWMGWINAGNGNTKFSQKFQGRITVTRDTAASTAYMELRSLRSEDTAVYYCARDKSNMVRGIIIAYYFDYWGQGTLVTVSS VL: EIVMTQSPSSLSASVGDRVTITCRASQSISRYLNWYQLKPGKAPRLLIYGASSLQSGVPSRFSGSGSGAEFTLTISSLQPEDIATYYCQHTRAFGQGTKVEIKR |
| – | – | – | 8.45 | 0.00268 | 317000 | “AT” antibody variant S96F (heavy chain CDR3) (antibody, name in Kabat numbering, V domains shown, not shown: human IgG1 CH1, hinge, CH2 and CH3) VH: QVQLVQSGAEVRKPGASVKVSCKASGYDFSNYAIHWVRQAPGQRLEWMGWINAGNGNTKFSQKFQGRITVTRDTAASTAYMELRSLRSEDTAVYYCARDFSNMVRGIIIAYYFDYWGQGTLVTVSS VL: EIVMTQSPSSLSASVGDRVTITCRASQSISRYLNWYQLKPGKAPRLLIYGASSLQSGVPSRFSGSGSGAEFTLTISSLQPEDIATYYCQHTRAFGQGTKVEIKR |
| – | – | – | 3.09 | 0.00359 | 1.16e+06 | “AT” antibody variant S96Q (heavy chain CDR3) (antibody, name in Kabat numbering, V domains shown, not shown: human IgG1 CH1, hinge, CH2 and CH3) VH: QVQLVQSGAEVRKPGASVKVSCKASGYDFSNYAIHWVRQAPGQRLEWMGWINAGNGNTKFSQKFQGRITVTRDTAASTAYMELRSLRSEDTAVYYCARDQSNMVRGIIIAYYFDYWGQGTLVTVSS VL: EIVMTQSPSSLSASVGDRVTITCRASQSISRYLNWYQLKPGKAPRLLIYGASSLQSGVPSRFSGSGSGAEFTLTISSLQPEDIATYYCQHTRAFGQGTKVEIKR |
| – | – | – | 1.53 | 0.00215 | 1.4e+06 | “AT” antibody variant S96N (heavy chain CDR3) (antibody, name in Kabat numbering, V domains shown, not shown: human IgG1 CH1, hinge, CH2 and CH3) VH: QVQLVQSGAEVRKPGASVKVSCKASGYDFSNYAIHWVRQAPGQRLEWMGWINAGNGNTKFSQKFQGRITVTRDTAASTAYMELRSLRSEDTAVYYCARDNSNMVRGIIIAYYFDYWGQGTLVTVSS VL: EIVMTQSPSSLSASVGDRVTITCRASQSISRYLNWYQLKPGKAPRLLIYGASSLQSGVPSRFSGSGSGAEFTLTISSLQPEDIATYYCQHTRAFGQGTKVEIKR |
| – | – | – | 3.85 | 0.015 | 3.87e+06 | “AT” antibody variant S96G (heavy chain CDR3) (antibody, name in Kabat numbering, V domains shown, not shown: human IgG1 CH1, hinge, CH2 and CH3) VH: QVQLVQSGAEVRKPGASVKVSCKASGYDFSNYAIHWVRQAPGQRLEWMGWINAGNGNTKFSQKFQGRITVTRDTAASTAYMELRSLRSEDTAVYYCARDGSNMVRGIIIAYYFDYWGQGTLVTVSS VL: EIVMTQSPSSLSASVGDRVTITCRASQSISRYLNWYQLKPGKAPRLLIYGASSLQSGVPSRFSGSGSGAEFTLTISSLQPEDIATYYCQHTRAFGQGTKVEIKR |
| – | – | – | 0.3 | 0.00175 | 5.84e+06 | “AT” antibody variant S96L (heavy chain CDR3) (antibody, name in Kabat numbering, V domains shown, not shown: human IgG1 CH1, hinge, CH2 and CH3) VH: QVQLVQSGAEVRKPGASVKVSCKASGYDFSNYAIHWVRQAPGQRLEWMGWINAGNGNTKFSQKFQGRITVTRDTAASTAYMELRSLRSEDTAVYYCARDLSNMVRGIIIAYYFDYWGQGTLVTVSS VL: EIVMTQSPSSLSASVGDRVTITCRASQSISRYLNWYQLKPGKAPRLLIYGASSLQSGVPSRFSGSGSGAEFTLTISSLQPEDIATYYCQHTRAFGQGTKVEIKR |
| – | – | – | 0.51 | 0.00118 | 2.28e+06 | “AT” antibody variant S96D (heavy chain CDR3) (antibody, name in Kabat numbering, V domains shown, not shown: human IgG1 CH1, hinge, CH2 and CH3) VH: QVQLVQSGAEVRKPGASVKVSCKASGYDFSNYAIHWVRQAPGQRLEWMGWINAGNGNTKFSQKFQGRITVTRDTAASTAYMELRSLRSEDTAVYYCARDDSNMVRGIIIAYYFDYWGQGTLVTVSS VL: EIVMTQSPSSLSASVGDRVTITCRASQSISRYLNWYQLKPGKAPRLLIYGASSLQSGVPSRFSGSGSGAEFTLTISSLQPEDIATYYCQHTRAFGQGTKVEIKR |
| – | – | – | 1.29 | 0.00188 | 1.45e+06 | “AT” antibody variant S96P (heavy chain CDR3) (antibody, name in Kabat numbering, V domains shown, not shown: human IgG1 CH1, hinge, CH2 and CH3) VH: QVQLVQSGAEVRKPGASVKVSCKASGYDFSNYAIHWVRQAPGQRLEWMGWINAGNGNTKFSQKFQGRITVTRDTAASTAYMELRSLRSEDTAVYYCARDPSNMVRGIIIAYYFDYWGQGTLVTVSS VL: EIVMTQSPSSLSASVGDRVTITCRASQSISRYLNWYQLKPGKAPRLLIYGASSLQSGVPSRFSGSGSGAEFTLTISSLQPEDIATYYCQHTRAFGQGTKVEIKR |
| – | – | – | 2.25 | 0.0121 | 5.37e+06 | “AT” antibody variant S96V (heavy chain CDR3) (antibody, name in Kabat numbering, V domains shown, not shown: human IgG1 CH1, hinge, CH2 and CH3) VH: QVQLVQSGAEVRKPGASVKVSCKASGYDFSNYAIHWVRQAPGQRLEWMGWINAGNGNTKFSQKFQGRITVTRDTAASTAYMELRSLRSEDTAVYYCARDVSNMVRGIIIAYYFDYWGQGTLVTVSS VL: EIVMTQSPSSLSASVGDRVTITCRASQSISRYLNWYQLKPGKAPRLLIYGASSLQSGVPSRFSGSGSGAEFTLTISSLQPEDIATYYCQHTRAFGQGTKVEIKR |
| – | – | – | 1.26 | 0.00203 | 1.61e+06 | “AT” antibody variant S96W (heavy chain CDR3) (antibody, name in Kabat numbering, V domains shown, not shown: human IgG1 CH1, hinge, CH2 and CH3) VH: QVQLVQSGAEVRKPGASVKVSCKASGYDFSNYAIHWVRQAPGQRLEWMGWINAGNGNTKFSQKFQGRITVTRDTAASTAYMELRSLRSEDTAVYYCARDWSNMVRGIIIAYYFDYWGQGTLVTVSS VL: EIVMTQSPSSLSASVGDRVTITCRASQSISRYLNWYQLKPGKAPRLLIYGASSLQSGVPSRFSGSGSGAEFTLTISSLQPEDIATYYCQHTRAFGQGTKVEIKR |
